From patent US20080311122A1 (AstraZeneca / MedImmune, published 2008) come the findings set out here.

Residue numbers refer to the chain shown, from its start.

Experiment [1] has as its target T1, recombinant HMG1 purified from E. coli as a calmodulin binding protein (CBP) fusion protein (human, UniProt A9RA84 1-215 (Papio anubis entry)).
T1 sequence: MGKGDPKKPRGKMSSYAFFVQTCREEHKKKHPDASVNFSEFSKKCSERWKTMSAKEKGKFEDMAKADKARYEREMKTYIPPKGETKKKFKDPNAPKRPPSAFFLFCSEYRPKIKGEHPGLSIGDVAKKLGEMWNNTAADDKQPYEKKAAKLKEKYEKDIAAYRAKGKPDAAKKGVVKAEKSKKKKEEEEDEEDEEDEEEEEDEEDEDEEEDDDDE
The experiment is described as follows: cell-based or functional assay.

The target of experiment [2] is T2, HMG1 B Box peptide amino acids 91-169.
T2 construct: also called HMG1 peptide 91-169
T2 peptide: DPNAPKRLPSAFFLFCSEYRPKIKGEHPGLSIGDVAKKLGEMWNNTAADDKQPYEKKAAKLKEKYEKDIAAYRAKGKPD
The experiment is described as follows: ELISA, wells coated with HMG1 B Box peptide 91-169 at 10 ug/ml. On the procedure: (§1) The plate was then blocked with 4% milk powder dissolved in PBS at 37° C. for 1 hour. The blocking solution was removed and replaced with human anti-HMG1 antibodies at various concentrations (see FIGS. 5A-B). […] HRP activity was detected with Sureblue HRP substrate (KPL). Plates were read at 450 nm using a Kinetic Microplate Reader (Molecular Devices). […] After washing and blocking with 1% BSA in PBS, the biotinylated peptides were individually added into the avidin coated wells and incubated for 30 min at room temperature. The serial diluted antibody G4, S16 and S6 at the initial concentration at 10 μg/ml were then transferred into the wells followed by adding mouse anti human IgG-HRP conjugate (Pierce). Detection was accomplished by adding 50 μl of tetramethylbenzidine (TMB) substrate (KPL) and the absorbance was read at […].
For orientation: ELISA stands for enzyme-linked immunosorbent assay.

Experiment [3] concerns the target T3, recombinant rat HMGB-1, Europium-labeled (rat, UniProt P63159 1-215, limits assumed, Europium label, molar ratio of HMGB-1 to Eu 1:5).
T3 construct: also called Europium-labeled HMGB-1; recombinant HMG1 (Thp-1 assay)
T3 sequence (looked up): T1 sequence with E189D, D202E
The experiment is described as follows: inhibition of binding of Eu-labeled HMGB-1 to THP-1 cells. On the procedure:
HMG1 binding to THP-1 Cells: Recombinant rat HMGB-1 was labeled using Eu-labelling Kit from PerkinElmer. Molar ratio of HMGB-1 to Eu is 1:5. THP-1 were cultured as the protocol from ATCC. Cells were harvested and suspended at concentration 1×10⁶/ml in assay buffer containing 1×DELFIA L*R binding buffer (PerkinElmer), 50% of DELFIA stabilizer (PerkinElmer) and 0.05% of sodium azide. 100 μl of cells (1×10⁵) was added into wells in 96 well cell culture plate. The plate was incubated with gentle shaking at 4° C. for one hour. 100 μl of assay buffer containing 2 nM of Europium-labeled HMGB-1 mixed with various concentrations (333, 166.5, 83.25, 41.6, 20.8, 10.4 and 5.2 nM) of human anti-HMGB1 antibodies E11 or G2 or soluble human RAGE-Fc, were added into each wells respectively. After one hour incubation with gentle shaking at 4° C., the cells were washed four times with 1×L*R wash buffer (PerkinElmer) by centrifuging at 1200 rpm×5 min. 200 μl of enhancement solution was added into each well to dissociate and enhance Eu fluorescence at 615 nm. The fluorescence was measured with Wallac Victor Fluorometer. Assay was performed in triplicate and human antibody R3-47 was used the negative isotype control.

For experiment [4], the target named is T4, HMG1 purified from bovine (calf) thymus (bovine, UniProt P10103 2-215).
T4 construct: also called Calf thymus HMGB1; thymus HMG1
T4 sequence (looked up): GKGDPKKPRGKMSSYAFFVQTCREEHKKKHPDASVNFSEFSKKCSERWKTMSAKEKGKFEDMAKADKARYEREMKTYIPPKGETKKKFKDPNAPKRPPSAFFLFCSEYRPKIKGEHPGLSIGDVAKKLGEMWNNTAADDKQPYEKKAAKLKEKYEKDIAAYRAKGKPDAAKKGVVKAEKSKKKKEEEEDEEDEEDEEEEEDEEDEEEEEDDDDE
The experiment is described as follows: ELISA, wells coated with calf thymus HMGB1 at 5 ug/mL, antibody at 10 ug/mL, anti-human kappa/lambda-HRP, OD 490. On the procedure: (§2) Binding to HMG1 vs. HMG2: Ultra high-binding ELISA plates (ThermoLab systems, #3855) were coated with either 5 ug/mL of Calf thymus HMGB1 or HMBG2 diluted in 10 mM Phosphate buffered saline (PBS), pH 7.2 and incubate overnight at 4 degrees. The plates were washed twice with Ca and Mg free PBS and 100 microliters of anti-HMGB1 antibody diluted in 10 mM PBS, pH 7.2+1% bovine serum albumin (BSA) to a final concentration of 10 ug/mL was added to each well and the plates were incubated 1 hour at room temperature. The wells were washed three times with 100 μl of PBS, pH 7.2. HRP labeled goat-anti-human IgG Kappa-chain (KPL, #14-10-10) and goat-anti-human IgG Lambda-chain (KPL, #14-10-11) were diluted in 10 mM PBS+1% BSA 1:1000 and 100 μl were added to each well and incubated for 1 hour at room temperature. The wells were then washed three times with 100 μl of PBS, pH 7.2. OPD substrate (Pierce chemical company, #34006) was prepared following the manufacturers instructions and 100 μl of prepared substrate was added to each well and the plates incubated at room temperature in the dark for 20-30 minutes. The reaction was stopped with the addition of 100 μl of 2M H₂SO₄, and the plates read on a plate reader at a wavelength of 490 nm.

In the next experiment the target is T5, HMG2 (UniProt P40673 2-209, limits assumed).
T5 construct: also called HMGB2; HMBG2
T5 sequence (looked up): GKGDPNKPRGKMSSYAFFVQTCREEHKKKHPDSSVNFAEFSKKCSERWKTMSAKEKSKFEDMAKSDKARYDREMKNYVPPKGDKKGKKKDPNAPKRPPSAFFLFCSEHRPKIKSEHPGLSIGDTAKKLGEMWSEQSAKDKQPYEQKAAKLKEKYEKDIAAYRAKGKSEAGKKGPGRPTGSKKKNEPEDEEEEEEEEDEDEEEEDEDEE
The experiment is described as follows: ELISA, wells coated with HMGB2 at 5 ug/mL, OD 490. On the procedure: as §2

The target of experiment [5] is T6, HMG1 B Box peptide amino acids 150-183.
T6 peptide: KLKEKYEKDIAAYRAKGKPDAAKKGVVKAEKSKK
The experiment is described as follows: ELISA, wells coated with HMG1 B Box peptide 150-183 at 10 ug/ml. On the procedure: as §1

The target of experiment [6] is T1, recombinant HMG1 purified from E. coli …. The experiment is described as follows: ELISA, rHMG1 preincubated with antibody, coated RAGE-Fc. On the procedure: HMG1 binding to RAGE-Ig by ELISA: 50 μl/well of RAGE-Fc fusion protein at 5 μg/ml in PBS was added to each well of an ELISA plate and incubated overnight at 4° C. The plate was then blocked with 200 μl of 5% milk at 37° C. for 1 hr and washed 3× with PBS/Tween. 50 μl/well of diluted HMGB1 solution. For dose curves, HMGB1 concentrations started at 4 ug/ml in PBS. For antibody blocking the HMGB1 was preincubated in another plate with human anti-HMG1 antibodies or buffer, then transferred to the RAGE-coated plate. The plates were then incubated at room temperature for 2 hours and washed 3×. To detect any HMG1 bound to the immobilized RAGE-Fc a mixture of biotinylated mouse anti-HMG1 mAbs (10D4, 4H11, 3E10 and 5C12) each at 1 ug/ml, total Ab: 4 ug/ml, were added to each well and the plate was incubated for 1 hour at room temperature. The plate was then washed and Strepavidin-HPR was added to each well and incubated 15 min. The plate was then washed 3× and blotted dry. 100 μl of TMB developing agent was added and the plate read at 650 nm. Values were calculated as percent of inhibition with HMG1 alone equal to 0% inhibition. The data in FIG. 9 and summarized in Table 1 represent the average of two separate experiments.

Experiment [7] shares this target. The experiment is described as follows: BIAcore, mAb immobilized, HMG1 injected, steady-state model. On the procedure: HMG1 Binding Affinity via BIAcore Analysis: All experiments were performed on a BIAcore 3000 instrument (BIAcore, Inc., Piscataway, N.J.). Briefly, each mAb was immobilized to a CM5 sensor chip using a standard amino coupling chemistry. Separately a reference (control) flow cell was also prepared. Two-fold, serial dilutions of HMG1 in instrument buffer were sequentially injected at a slow flow rate over the individual mAb and reference flow-cell surfaces. Following the binding and dissociation of HMG1, the mAbs surfaces were regenerated with a brief pulse of 1M NaCl-50 mM NaOH. At the end of each experiment, the binding curves were evaluated using a steady-state model available through the BIA evaluation software supplied by BIAcore, Inc. (Piscataway, N.J.).
(In general: Surface plasmon resonance follows binding to a sensor surface in real time, without labels.)

The target of experiment [8] is T7, activated HMG1 prepared from LPS stimulated THP-1 cells (human, UniProt P09429 1-215).
T7 sequence (looked up): T1 sequence
The experiment is described as follows: cell-based or functional assay.

B1: anti-HMG1 antibody G2 (antibody, V domains shown)
VH: EVQLLESGGGLVQPGGSLRLSCAASGFTFSWYKMQWVRQAPGKGLEWVSGISPSGGSTAYADSVKGRFTISRDNSKNTLYLQMNSLRAEDTAVYYCAKMGLFNTGNSYVDYWGQGTLVTVSS
VL: AQSELTQPPSVSEAPGQRVTISCSGSTSNIGNNAVIWYQQLPGKAPKLLIYYDDLLPSGVSDRFSGSKSGTSGSLAISGLQSEDEADYYCASWDDNLNGPLFGGGTKLTVL
As usually defined, the IC50 is the point on the concentration scale where inhibition reaches its midpoint. For B1, in experiment [1], the “IC50, inhibition of rHMG1 stimulated IL-1β release from human PBMC” value came to 5030 ng/mL; the “IC50, inhibition of rHMG1 stimulated IL-6 release from human PBMC” value worked out at 0.994 nM; the “IC50, inhibition of rHMG1 stimulated IL-12 release from human PBMC” value is 1260 ng/mL; the “IC50, inhibition of rHMG1 stimulated TNF-α release from human PBMC” value amounted to 1350 ng/mL. For the same molecule, the binding result in [2] is given as “no binding (tested: 10 ug/ml (log 1.00))”. For the same molecule, the 50% inhibitory concentration (IC50) in experiment [3] came to 73.3 nM. For the same molecule, the binding result in [4] is recorded as “binds”. In addition, in the experiment with HMG2, the binding result is “no binding (tested: 10 ug/mL (not on the sheet))”. In addition, the binding result in experiment [5] is listed as “no binding (tested: 10 ug/ml (log 1.00))”.

B2: anti-HMG1 antibody S10 (antibody, V domains shown)
VH: EVQLLESGGGLVQPGGSLRLSCAASGFTFSWYDMWWVRQAPGKGLEWVSWIVPSGGITAYADSVKGRFTISRDNSKNTLYLQMNSLRAEDTATYYCARGNYGPSPFDYWGQGTLVTVSS
VL: DIQMTQSPGTLSLSPGERATLSCRATQSVRKNFLAWYQQKPGQAPRLLIYDASSRATGIPDRFSGSGSGTDFTLTISRLEPEDFAVYYCQQYGNSPIIFGQGTRLEIK
Broadly, the Kd is a measure of binding affinity in units of concentration. For B2, in [1], the “IC50, inhibition of rHMG1 stimulated IL-1β release from human PBMC” value was found to be 2590 ng/mL; the “IC50, inhibition of rHMG1 stimulated IL-6 release from human PBMC” value was found to be 0.324 nM; the “IC50, inhibition of rHMG1 stimulated IL-12 release from human PBMC” value was determined as 1130 ng/mL; the “IC50, inhibition of rHMG1 stimulated TNF-α release from human PBMC” value is 875 ng/mL. Moreover, the binding result in experiment [2] is “no binding (tested: 10 ug/ml (log 1.00))”. Further, in experiment [6], the “percent inhibition of HMG1 binding to RAGE-Fc” value is ≥ 35%. In addition, the binding result in experiment [4] is given as “binds”. Besides, the binding result with HMG2 is recorded as “no binding (tested: 10 ug/mL (not on the sheet))”. Besides, the binding result in experiment [5] was “no binding (tested: 10 ug/ml (log 1.00))”. Further, the Kd in experiment [7] amounted to 54 nM.

B3: anti-HMG1 antibody S17 (antibody, V domains shown)
VH: EVQLLESGGGLVQPGGSLRLSCAASGFTFSYYDMHWVRQAPGKGLEWVSRISPSGGYTWYADSVKGRFTISRDNSKNTLYLQMNSLRAEDTAVYYCTRGRYTSGWHEYFDPWGQGTLVTVSS
VL: DIQMTQSPSSLSASVGDRVTITCRASQSIGTYLNWYQQKPGTAPKVLIYAASSLQSGVPSRFSGSGSGTDFTLTISSLQPEDFSTYYCQQSYNTPRTFGQGTKLEIK
As for B3, the “IC50, inhibition of HMG1 stimulated NO release from macrophages” value in experiment [1] worked out at 41700 ng/mL. In addition, the “IC50, inhibition of rHMG1 stimulated IL-1β release from human PBMC” value in [1] was 80.9 ng/mL. The “IC50, inhibition of rHMG1 stimulated IL-6 release from human PBMC” value in experiment [1] is 0.162 nM. Moreover, in experiment [8], the “IC50, inhibition of native activated HMG1 stimulated IL-6 release from human PBMC” value amounted to 11.5 nM. Moreover, the binding result in [2] is reported as “no binding (tested: 10 ug/ml (log 1.00))”; in experiment [4], “binds”; in the experiment with HMG2, “no binding (tested: 10 ug/mL (not on the sheet))”; in experiment [5] it was “no binding (tested: 10 ug/ml (log 1.00))”.
